Results: article PMC5700200

Target: FLAG-tagged β1 adrenergic receptor (UniProt P34971)
Experiment: proximity ligation; in situ PLA (Duolink) in HEK293 cells stably expressing FLAG-tagged β1AR or β2AR; 10 μM carvedilol, isoproterenol or other βAR ligands for 5 min, with or without 10 μM propranolol for 30 min; fixed, permeabilised; rabbit anti-β1AR (or β2AR) with mouse anti-Gαi

UniProt P34971, sequence (P34971 whole entry): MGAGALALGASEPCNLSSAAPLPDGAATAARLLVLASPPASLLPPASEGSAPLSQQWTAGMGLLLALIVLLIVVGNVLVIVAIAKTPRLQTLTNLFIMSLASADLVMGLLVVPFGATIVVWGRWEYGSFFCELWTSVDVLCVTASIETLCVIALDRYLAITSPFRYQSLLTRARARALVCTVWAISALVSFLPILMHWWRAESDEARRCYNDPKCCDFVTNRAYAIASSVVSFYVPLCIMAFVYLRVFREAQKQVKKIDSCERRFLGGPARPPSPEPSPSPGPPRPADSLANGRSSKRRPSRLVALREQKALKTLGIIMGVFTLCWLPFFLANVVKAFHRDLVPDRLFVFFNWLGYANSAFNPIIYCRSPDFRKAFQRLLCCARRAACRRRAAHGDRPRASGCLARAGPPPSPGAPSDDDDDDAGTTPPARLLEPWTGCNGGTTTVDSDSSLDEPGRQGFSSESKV

fold increase in the PLA signal after carvedilol over unstimulated cells: > 2 fold
Substance: Gαi (from UniProt P08754 1-354) (natural protein)
